Data as given in IntAct's records for PubMed 35512704.

B1: Mothers against decapentaplegic homolog 4 (Homo sapiens), Q13485 (parent)
chain: MDNMSITNTPTSNDACLSIVHSLMCHRQGGESETFAKRAIESLVKKLKEKKDELDSLITAITTNGAHPSKCVTIQRTLDGRLQVAGRKGFPHVIYARLWRWPDLHKNELKHVKYCQYAFDLKCDSVCVNPYHYERVVSPGIDLSGLTLQSNAPSSMMVKDEYVHDFEGQPSLSTEGHSIQTIQHPPSNRASTETYSTPALLAPSESNATSTANFPNIPVASTSQPASILGGSHSEGLLQIASGPQPGQQQNGFTGQPATYHHNSTTTWTGSRTAPYTPNLPHHQNGHLQHHPPMPPHPGHYWPVHNELAFQPPISNHPAPEYWCSIAYFEMDVQVGETFKVPSSCPIVTVDGYVDPSGGDRFCLGQLSNVHRTEAIERARLHIGKGVQLECKGEGDVWVRCLSDHAVFVQSYYLDREAGRAPGDAVHKIYPSAYIKVFDLRQCHRQMQQQAATAQAAAAAQAAAVAGNIPGPGSVGGIAPAISLSAAAGIGVDDLRRLCILRMSFVKGWGPDYPRQSIKETPCWIEIHLHRALQLLDEVLHTMPIADPQPLD
partner: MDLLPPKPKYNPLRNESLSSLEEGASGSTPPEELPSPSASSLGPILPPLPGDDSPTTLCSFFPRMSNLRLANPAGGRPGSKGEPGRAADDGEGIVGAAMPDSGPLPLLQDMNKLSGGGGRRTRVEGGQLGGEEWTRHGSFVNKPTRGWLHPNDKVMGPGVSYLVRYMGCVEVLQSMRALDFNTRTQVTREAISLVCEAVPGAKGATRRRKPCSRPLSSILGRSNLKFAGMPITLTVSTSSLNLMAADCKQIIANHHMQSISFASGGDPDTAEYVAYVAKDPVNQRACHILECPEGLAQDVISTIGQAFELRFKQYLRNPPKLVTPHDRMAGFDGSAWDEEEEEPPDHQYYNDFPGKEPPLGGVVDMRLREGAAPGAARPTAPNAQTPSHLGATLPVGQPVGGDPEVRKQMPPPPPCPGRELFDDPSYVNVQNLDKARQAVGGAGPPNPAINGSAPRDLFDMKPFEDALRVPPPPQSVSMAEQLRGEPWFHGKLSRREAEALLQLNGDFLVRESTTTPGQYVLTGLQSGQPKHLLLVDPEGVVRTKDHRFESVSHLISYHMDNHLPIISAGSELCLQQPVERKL
B2: Mothers against decapentaplegic homolog 4 (Homo sapiens), Q13485 (parent)
chain: B1 chain
partner: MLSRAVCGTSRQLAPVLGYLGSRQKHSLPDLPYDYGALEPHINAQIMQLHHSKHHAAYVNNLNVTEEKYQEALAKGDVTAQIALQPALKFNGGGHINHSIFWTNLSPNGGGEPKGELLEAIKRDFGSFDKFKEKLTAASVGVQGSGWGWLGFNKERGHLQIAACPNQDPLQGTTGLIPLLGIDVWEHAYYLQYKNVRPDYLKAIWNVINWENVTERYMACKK
B3: Mothers against decapentaplegic homolog 4 (Homo sapiens), Q13485 (parent)
chain: B1 chain
partner: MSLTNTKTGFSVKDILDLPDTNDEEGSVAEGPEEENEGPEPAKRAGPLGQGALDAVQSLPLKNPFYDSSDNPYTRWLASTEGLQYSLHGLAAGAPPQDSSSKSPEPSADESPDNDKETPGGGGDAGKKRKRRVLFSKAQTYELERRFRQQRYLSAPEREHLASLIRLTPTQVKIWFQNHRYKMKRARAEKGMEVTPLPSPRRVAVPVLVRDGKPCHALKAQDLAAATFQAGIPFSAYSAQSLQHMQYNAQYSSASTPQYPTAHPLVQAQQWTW
B4: Mothers against decapentaplegic homolog 4 (Homo sapiens), Q13485 (parent)
chain: B1 chain
partner: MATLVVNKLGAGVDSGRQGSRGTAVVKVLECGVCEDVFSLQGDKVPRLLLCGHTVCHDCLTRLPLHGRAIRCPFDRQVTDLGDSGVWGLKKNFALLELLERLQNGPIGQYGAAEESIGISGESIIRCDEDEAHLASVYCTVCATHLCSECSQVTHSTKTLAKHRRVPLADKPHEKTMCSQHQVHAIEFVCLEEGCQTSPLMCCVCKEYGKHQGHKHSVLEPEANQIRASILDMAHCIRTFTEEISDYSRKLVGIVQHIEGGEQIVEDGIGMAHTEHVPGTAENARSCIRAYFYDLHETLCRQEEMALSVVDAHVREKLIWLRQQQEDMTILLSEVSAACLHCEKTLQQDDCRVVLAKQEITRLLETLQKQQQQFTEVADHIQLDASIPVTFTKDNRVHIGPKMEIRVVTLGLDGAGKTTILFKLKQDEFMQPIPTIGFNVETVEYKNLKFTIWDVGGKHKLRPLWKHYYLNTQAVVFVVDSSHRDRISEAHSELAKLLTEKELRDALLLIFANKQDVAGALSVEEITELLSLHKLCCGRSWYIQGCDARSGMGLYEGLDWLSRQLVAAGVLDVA
B5: Mothers against decapentaplegic homolog 4 (Homo sapiens), Q13485 (parent)
chain: B1 chain
partner: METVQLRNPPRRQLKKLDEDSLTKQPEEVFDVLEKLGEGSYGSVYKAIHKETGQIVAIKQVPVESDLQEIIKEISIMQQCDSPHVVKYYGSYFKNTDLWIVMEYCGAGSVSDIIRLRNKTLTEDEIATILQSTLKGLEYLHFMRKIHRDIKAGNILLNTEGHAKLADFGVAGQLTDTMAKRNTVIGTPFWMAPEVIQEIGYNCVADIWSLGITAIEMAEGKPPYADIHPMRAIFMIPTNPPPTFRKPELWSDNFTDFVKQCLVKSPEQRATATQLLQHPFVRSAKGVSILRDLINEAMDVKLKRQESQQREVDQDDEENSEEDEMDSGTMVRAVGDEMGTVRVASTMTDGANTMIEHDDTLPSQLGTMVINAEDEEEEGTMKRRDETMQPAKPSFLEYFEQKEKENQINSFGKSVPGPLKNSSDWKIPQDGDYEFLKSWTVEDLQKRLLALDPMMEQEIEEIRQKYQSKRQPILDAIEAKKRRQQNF
B6: Mothers against decapentaplegic homolog 4 (Homo sapiens), Q13485 (parent)
chain: B1 chain
partner: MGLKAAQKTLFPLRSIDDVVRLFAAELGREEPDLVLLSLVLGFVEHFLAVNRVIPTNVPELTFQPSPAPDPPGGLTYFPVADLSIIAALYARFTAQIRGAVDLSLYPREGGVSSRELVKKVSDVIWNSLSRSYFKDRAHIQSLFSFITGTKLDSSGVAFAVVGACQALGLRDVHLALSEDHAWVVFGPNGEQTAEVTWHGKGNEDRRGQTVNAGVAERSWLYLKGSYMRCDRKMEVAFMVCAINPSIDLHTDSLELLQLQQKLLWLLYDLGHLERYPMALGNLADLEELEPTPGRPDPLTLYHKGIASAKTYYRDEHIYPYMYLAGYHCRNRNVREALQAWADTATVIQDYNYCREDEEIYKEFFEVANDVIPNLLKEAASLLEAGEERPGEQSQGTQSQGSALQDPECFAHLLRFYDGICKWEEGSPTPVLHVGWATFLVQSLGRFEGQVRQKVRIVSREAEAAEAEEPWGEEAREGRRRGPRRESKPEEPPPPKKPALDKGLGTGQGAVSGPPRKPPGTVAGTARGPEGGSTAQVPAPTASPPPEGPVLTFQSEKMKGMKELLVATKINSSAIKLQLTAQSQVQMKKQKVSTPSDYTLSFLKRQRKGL

Variants of: B1
Details: with shc1_human SHC1, P29353

effect of a mutation on the interaction	Variant
with no effect	D351H

Variants of: B1
Details: with shc1_human SHC1, P29353
Remark: another data set of the same source

effect of a mutation on the interaction	Variant
with no effect	G386D

Variants of: B1
Details: with shc1_human SHC1, P29353
Remark: another data set of the same source

effect of a mutation on the interaction	Variant
with no effect	R361H

Variants of: B1
Details: with shc1_human SHC1, P29353
Remark: another data set of the same source

effect of a mutation on the interaction	Variant
with no effect	R361C

Variants of: B2
Details: with sodm_human SOD2, P04179

effect of a mutation on the interaction	Variant
with no effect	G386D

Variants of: B2
Details: with sodm_human SOD2, P04179
Remark: another data set of the same source

effect of a mutation on the interaction	Variant
with no effect	R361C

Variants of: B2
Details: with sodm_human SOD2, P04179
Remark: another data set of the same source

effect of a mutation on the interaction	Variant
with no effect	R361H

Variants of: B2
Details: with sodm_human SOD2, P04179
Remark: another data set of the same source

effect of a mutation on the interaction	Variant
with no effect	D351H

Variants of: B3
Details: with nkx22_human NKX2-2, O95096

effect of a mutation on the interaction	Variant
with no effect	R361H

Variants of: B3
Details: with nkx22_human NKX2-2, O95096
Remark: another data set of the same source

effect of a mutation on the interaction	Variant
with no effect	R361C

Variants of: B3
Details: with nkx22_human NKX2-2, O95096
Remark: another data set of the same source

effect of a mutation on the interaction	Variant
with no effect	D351H

Variants of: B4
Details: with tri23_human TRIM23, P36406

effect of a mutation on the interaction	Variant
with no effect	D351H

Variants of: B4
Details: with tri23_human TRIM23, P36406
Remark: another data set of the same source

effect of a mutation on the interaction	Variant
with no effect	G386D

Variants of: B4
Details: with tri23_human TRIM23, P36406
Remark: another data set of the same source

effect of a mutation on the interaction	Variant
with no effect	R361H

Variants of: B4
Details: with tri23_human TRIM23, P36406
Remark: another data set of the same source

effect of a mutation on the interaction	Variant
with no effect	R361C

Variants of: B5
Details: with stk4_human STK4, Q13043

effect of a mutation on the interaction	Variant
with no effect	R361H

Variants of: B5
Details: with stk4_human STK4, Q13043
Remark: another data set of the same source

effect of a mutation on the interaction	Variant
with no effect	R361C

Variants of: B5
Details: with stk4_human STK4, Q13043
Remark: another data set of the same source

effect of a mutation on the interaction	Variant
with no effect	G386D

Variants of: B5
Details: with stk4_human STK4, Q13043
Remark: another data set of the same source

effect of a mutation on the interaction	Variant
with no effect	D351H

Variants of: B6
Details: with men1_human MEN1, O00255

effect of a mutation on the interaction	Variant
with no effect	D351H

Variants of: B6
Details: with men1_human MEN1, O00255
Remark: another data set of the same source

effect of a mutation on the interaction	Variant
with no effect	R361H

Variants of: B6
Details: with men1_human MEN1, O00255
Remark: another data set of the same source

effect of a mutation on the interaction	Variant
with no effect	R361C

Variants of: B6
Details: with men1_human MEN1, O00255
Remark: another data set of the same source

effect of a mutation on the interaction	Variant
with no effect	G386D
